Measured values published in patent US20220298218A1 (ANTAG THERAPEUTICS, published 2022).
Read-outs that look alike come from different tables or passages of the source. *1 amine or outer side, *2 acyl side, *3 side chain or, on linkers, in order; H or OH if unused. Where no end group is shown, it is not given here. Side-chain parts run from the residue outwards. The star is where a group is joined. C18 diacid = O=C(O)CCCCCCCCCCCCCCCCC(=O)*; C16 diacid = O=C(O)CCCCCCCCCCCCCCC(=O)*; γGlu = O=C(O)[C@H](CCC(=O)[*:2])N[*:1]; AEEA = NCCOCCOCC(=O)O

T1: human GIP receptor (human, UniProt P48546 22-466)
T1 sequence (looked up): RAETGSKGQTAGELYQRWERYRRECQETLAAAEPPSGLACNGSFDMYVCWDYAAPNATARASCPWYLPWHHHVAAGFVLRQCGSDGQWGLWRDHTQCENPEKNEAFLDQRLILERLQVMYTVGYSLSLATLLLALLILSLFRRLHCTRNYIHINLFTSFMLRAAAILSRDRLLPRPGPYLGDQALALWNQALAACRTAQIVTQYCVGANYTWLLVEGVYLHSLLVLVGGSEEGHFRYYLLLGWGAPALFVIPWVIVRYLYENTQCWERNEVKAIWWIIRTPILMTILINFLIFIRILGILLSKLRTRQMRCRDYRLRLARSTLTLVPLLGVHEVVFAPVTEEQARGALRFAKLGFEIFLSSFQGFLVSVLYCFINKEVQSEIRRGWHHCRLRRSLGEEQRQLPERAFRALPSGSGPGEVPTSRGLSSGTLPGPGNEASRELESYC


Columns and labels:
human GIP receptor [1] = target: T1, human GIP receptor; assay: cell-based or functional assay
human GIP receptor [2] = target: T1, human GIP receptor; assay: cell-based or functional assay; remark: listed apart in the source

Binder	cAMP antagonism (human GIP receptor [1])	cAMP antagonism % inhib (human GIP receptor [1])	cAMP antagonism log (human GIP receptor [1])	cAMP agonism % Emax (human GIP receptor [2])	cAMP antagonism (human GIP receptor [2])	cAMP antagonism % inhib (human GIP receptor [2])	cAMP antagonism pIC50 (human GIP receptor [2])	cAMP agonism Emax (human GIP receptor [1])
EGTFISDYSIAMDKIK(C16 diacid)QQDFVNWLLAQKGPSSGAPPPS-OH (N-terminus assumed; SMILES CC[C@H](C)[C@H](NC(=O)[C@H](CO)NC(=O)[C@H](Cc1ccc(O)cc1)NC(=O)[C@H](CC(=O)O)NC(=O)[C@H](CO)NC(=O)[C@@H](NC(=O)[C@H](Cc1ccccc1)NC(=O)[C@@H](NC(=O)CNC(=O)[C@@H](N)CCC(=O)O)[C@@H](C)O)[C@@H](C)CC)C(=O)N[C@@H](C)C(=O)N[C@@H](CCSC)C(=O)N[C@@H](CC(=O)O)C(=O)N[C@@H](CCCCN)C(=O)N[C@H](C(=O)N[C@@H](CCCCNC(=O)CCCCCCCCCCCCCCC(=O)O)C(=O)N[C@@H](CCC(N)=O)C(=O)N[C@@H](CCC(N)=O)C(=O)N[C@@H](CC(=O)O)C(=O)N[C@@H](Cc1ccccc1)C(=O)N[C@H](C(=O)N[C@@H](CC(N)=O)C(=O)N[C@@H](Cc1c[nH]c2ccccc12)C(=O)N[C@@H](CC(C)C)C(=O)N[C@@H](CC(C)C)C(=O)N[C@@H](C)C(=O)N[C@@H](CCC(N)=O)C(=O)N[C@@H](CCCCN)C(=O)NCC(=O)N1CCC[C@H]1C(=O)N[C@@H](CO)C(=O)N[C@@H](CO)C(=O)NCC(=O)N[C@@H](C)C(=O)N1CCC[C@H]1C(=O)N1CCC[C@H]1C(=O)N1CCC[C@H]1C(=O)N[C@@H](CO)C(=O)O)C(C)C)[C@@H](C)CC) [AT364]	1 nM	100%	-8.9 log M	0%	13.8 nM	87%	7.9	
TFISDYKIAMDKIHQQDFVNWLLAQKGKK (HELM PEPTIDE1{T.F.I.S.D.Y.K.I.A.M.D.K.I.H.Q.Q.D.F.V.N.W.L.L.A.Q.K.G.K.K}|PEPTIDE2{[O=C(O)CCCCCCCCCCCCCCC(=O)[*:2]].[gGlu]}$PEPTIDE1,PEPTIDE2,7:R3-2:R2$$$V2.0; N-terminus assumed; SMILES CC[C@H](C)[C@H](NC(=O)[C@H](CCCCNC(=O)CC[C@H](NC(=O)CCCCCCCCCCCCCCC(=O)O)C(=O)O)NC(=O)[C@H](Cc1ccc(O)cc1)NC(=O)[C@H](CC(=O)O)NC(=O)[C@H](CO)NC(=O)[C@@H](NC(=O)[C@H](Cc1ccccc1)NC(=O)[C@@H](N)[C@@H](C)O)[C@@H](C)CC)C(=O)N[C@@H](C)C(=O)N[C@@H](CCSC)C(=O)N[C@@H](CC(=O)O)C(=O)N[C@@H](CCCCN)C(=O)N[C@H](C(=O)N[C@@H](Cc1c[nH]cn1)C(=O)N[C@@H](CCC(N)=O)C(=O)N[C@@H](CCC(N)=O)C(=O)N[C@@H](CC(=O)O)C(=O)N[C@@H](Cc1ccccc1)C(=O)N[C@H](C(=O)N[C@@H](CC(N)=O)C(=O)N[C@@H](Cc1c[nH]c2ccccc12)C(=O)N[C@@H](CC(C)C)C(=O)N[C@@H](CC(C)C)C(=O)N[C@@H](C)C(=O)N[C@@H](CCC(N)=O)C(=O)N[C@@H](CCCCN)C(=O)NCC(=O)N[C@@H](CCCCN)C(=O)N[C@@H](CCCCN)C(=O)O)C(C)C)[C@@H](C)CC) [AT365]	6 nM	100%	-8.2 log M	0%	13.6 nM	100%	7.9	
EGTFISDYSIAMDKIK(C16 diacid)QQDFVNWLLAQKGKKNDWKHNITQ-OH (N-terminus assumed; SMILES CC[C@H](C)[C@H](NC(=O)[C@H](CO)NC(=O)[C@H](Cc1ccc(O)cc1)NC(=O)[C@H](CC(=O)O)NC(=O)[C@H](CO)NC(=O)[C@@H](NC(=O)[C@H](Cc1ccccc1)NC(=O)[C@@H](NC(=O)CNC(=O)[C@@H](N)CCC(=O)O)[C@@H](C)O)[C@@H](C)CC)C(=O)N[C@@H](C)C(=O)N[C@@H](CCSC)C(=O)N[C@@H](CC(=O)O)C(=O)N[C@@H](CCCCN)C(=O)N[C@H](C(=O)N[C@@H](CCCCNC(=O)CCCCCCCCCCCCCCC(=O)O)C(=O)N[C@@H](CCC(N)=O)C(=O)N[C@@H](CCC(N)=O)C(=O)N[C@@H](CC(=O)O)C(=O)N[C@@H](Cc1ccccc1)C(=O)N[C@H](C(=O)N[C@@H](CC(N)=O)C(=O)N[C@@H](Cc1c[nH]c2ccccc12)C(=O)N[C@@H](CC(C)C)C(=O)N[C@@H](CC(C)C)C(=O)N[C@@H](C)C(=O)N[C@@H](CCC(N)=O)C(=O)N[C@@H](CCCCN)C(=O)NCC(=O)N[C@@H](CCCCN)C(=O)N[C@@H](CCCCN)C(=O)N[C@@H](CC(N)=O)C(=O)N[C@@H](CC(=O)O)C(=O)N[C@@H](Cc1c[nH]c2ccccc12)C(=O)N[C@@H](CCCCN)C(=O)N[C@@H](Cc1c[nH]cn1)C(=O)N[C@@H](CC(N)=O)C(=O)N[C@H](C(=O)N[C@H](C(=O)N[C@@H](CCC(N)=O)C(=O)O)[C@@H](C)O)[C@@H](C)CC)C(C)C)[C@@H](C)CC) [AT363]	5 nM	82%	-8.3 log M	0%	12.6 nM	90%	7.9	7
TFISDYKIAMDKIHQQDFVNWLLAQKGKKNDW (HELM PEPTIDE1{T.F.I.S.D.Y.K.I.A.M.D.K.I.H.Q.Q.D.F.V.N.W.L.L.A.Q.K.G.K.K.N.D.W}|PEPTIDE2{[O=C(O)CCCCCCCCCCCCCCC(=O)[*:2]].[gGlu]}$PEPTIDE1,PEPTIDE2,7:R3-2:R2$$$V2.0; N-terminus assumed; SMILES CC[C@H](C)[C@H](NC(=O)[C@H](CCCCNC(=O)CC[C@H](NC(=O)CCCCCCCCCCCCCCC(=O)O)C(=O)O)NC(=O)[C@H](Cc1ccc(O)cc1)NC(=O)[C@H](CC(=O)O)NC(=O)[C@H](CO)NC(=O)[C@@H](NC(=O)[C@H](Cc1ccccc1)NC(=O)[C@@H](N)[C@@H](C)O)[C@@H](C)CC)C(=O)N[C@@H](C)C(=O)N[C@@H](CCSC)C(=O)N[C@@H](CC(=O)O)C(=O)N[C@@H](CCCCN)C(=O)N[C@H](C(=O)N[C@@H](Cc1c[nH]cn1)C(=O)N[C@@H](CCC(N)=O)C(=O)N[C@@H](CCC(N)=O)C(=O)N[C@@H](CC(=O)O)C(=O)N[C@@H](Cc1ccccc1)C(=O)N[C@H](C(=O)N[C@@H](CC(N)=O)C(=O)N[C@@H](Cc1c[nH]c2ccccc12)C(=O)N[C@@H](CC(C)C)C(=O)N[C@@H](CC(C)C)C(=O)N[C@@H](C)C(=O)N[C@@H](CCC(N)=O)C(=O)N[C@@H](CCCCN)C(=O)NCC(=O)N[C@@H](CCCCN)C(=O)N[C@@H](CCCCN)C(=O)N[C@@H](CC(N)=O)C(=O)N[C@@H](CC(=O)O)C(=O)N[C@@H](Cc1c[nH]c2ccccc12)C(=O)O)C(C)C)[C@@H](C)CC) [AT366]	3 nM	100%	-8.5 log M	0%	17.8 nM	100%	7.8	
SGTFISDYSIAMDKIK([AEEA-AEEA-AEEA-γGlu-C18 diacid])QQDFVNWLLAQKGKKNDW-OH (N-terminus assumed; SMILES CC[C@H](C)[C@H](NC(=O)[C@H](CO)NC(=O)[C@H](Cc1ccc(O)cc1)NC(=O)[C@H](CC(=O)O)NC(=O)[C@H](CO)NC(=O)[C@@H](NC(=O)[C@H](Cc1ccccc1)NC(=O)[C@@H](NC(=O)CNC(=O)[C@@H](N)CO)[C@@H](C)O)[C@@H](C)CC)C(=O)N[C@@H](C)C(=O)N[C@@H](CCSC)C(=O)N[C@@H](CC(=O)O)C(=O)N[C@@H](CCCCN)C(=O)N[C@H](C(=O)N[C@@H](CCCCNC(=O)COCCOCCNC(=O)COCCOCCNC(=O)COCCOCCNC(=O)CC[C@H](NC(=O)CCCCCCCCCCCCCCCCC(=O)O)C(=O)O)C(=O)N[C@@H](CCC(N)=O)C(=O)N[C@@H](CCC(N)=O)C(=O)N[C@@H](CC(=O)O)C(=O)N[C@@H](Cc1ccccc1)C(=O)N[C@H](C(=O)N[C@@H](CC(N)=O)C(=O)N[C@@H](Cc1c[nH]c2ccccc12)C(=O)N[C@@H](CC(C)C)C(=O)N[C@@H](CC(C)C)C(=O)N[C@@H](C)C(=O)N[C@@H](CCC(N)=O)C(=O)N[C@@H](CCCCN)C(=O)NCC(=O)N[C@@H](CCCCN)C(=O)N[C@@H](CCCCN)C(=O)N[C@@H](CC(N)=O)C(=O)N[C@@H](CC(=O)O)C(=O)N[C@@H](Cc1c[nH]c2ccccc12)C(=O)O)C(C)C)[C@@H](C)CC) [AT422]	3 nM	90%	-8.5 log M	0%	3.69 nM	94%	8.4	6
